Measured values reported in article PMC11574312, “The role of ATP-binding Cassette subfamily B member 6 in the inner ear” (Nature Communications, 2024).

Target: the molecule itself
Assay: cryo-EM structure; ABCB6 WT purified in DDM/CHS, about 3.6 mg/mL on grids; apo, inward-facing; final refinement with C2 symmetry applied

B1: human ATP-binding cassette sub-family B member 6 (ABCB6) WT-Flag (natural protein)
chain: MVTVGNYCEAEGPVGPAWMQDGLSPCFFFTLVPSTRMALGTLALVLALPCRRRERPAGADSLSWGAGPRISPYVLQLLLATLQAALPLAGLAGRVGTARGAPLPSYLLLASVLESLAGACGLWLLVVERSQARQRLAMGIWIKFRHSPGLLLLWTVAFAAENLALVSWNSPQWWWARADLGQQVQFSLWVLRYVVSGGLFVLGLWAPGLRPQSYTLQVHEEDQDVERSQVRSAAQQSTWRDFGRKLRLLSGYLWPRGSPALQLVVLICLGLMGLERALNVLVPIFYRNIVNLLTEKAPWNSLAWTVTSYVFLKFLQGGGTGSTGFVSNLRTFLWIRVQQFTSRRVELLIFSHLHELSLRWHLGRRTGEVLRIADRGTSSVTGLLSYLVFNVIPTLADIIIGIIYFSMFFNAWFGLIVFLCMSLYLTLTIVVTEWRTKFRRAMNTQENATRARAVDSLLNFETVKYYNAESYEVERYREAIIKYQGLEWKSSASLVLLNQTQNLVIGLGLLAGSLLCAYFVTEQKLQVGDYVLFGTYIIQLYMPLNWFGTYYRMIQTNFIDMENMFDLLKEETEVKDLPGAGPLRFQKGRIEFENVHFSYADGRETLQDVSFTVMPGQTLALVGPSGAGKSTILRLLFRFYDISSGCIRIDGQDISQVTQASLRSHIGVVPQDTVLFNDTIADNIRYGRVTAGNDEVEAAAQAAGIHDAIMAFPEGYRTQVGERGLKLSGGEKQRVAIARTILKAPGIILLDEATSALDTSNERAIQASLAKVCANRTTIVVAHRLSTVVNADQILVIKDGCIVERGRHEALLSRGGVYADMWQLQQGQEETSEDTKPQTMER
notes: ABCB6, human, UniProt Q9NP58; the preparation holds the N-terminal TMD0, but the final model has no density for it; The protein was eluted from Flag resin with 3X Flag peptide and no tag cleavage is described
binding result: binds
